According to US20070004636A1, “Method of degrading transcriptional factors of saccharometabolism-associated gene, method for inhibiting the degradation, and agent for inhibiting degradation and degradation inhibitor” (priority 2002, published 2007):

Legend:
human IPF-1 = assay: in vitro protein degradation test of IPF-1 by calpain (Western blotting); format: biochemical; conditions: 1 hour at 37° C.
Experimental: Using the IPF-1 expression plasmid, synthesis of IPF-1 protein was carried out in vitro using the TNT T7 Quick Coupled Transcription/Translation System. That is, the IPF-1 expression plasmid was mixed with TNT T7 Quick Master Mix, and then incubated for 1.5 hours at 30° C. in the presence of methionine to synthesize IPF-1.
Protein degradation tests were carried out in vitro by adding μ-calpain or m-calpain to IPF-1, and incubating for 1 hour at 37° C. in the presence of 200 mM Tris-HCl (pH 7.8)/1 mM DTT/6 mM CaCl2. The final concentrations of each calpain in the reaction systems were as follows: 50 units/mL of human μ-calpain; 50 μg/mL of rabbit m-calpain as a protein concentration, and 59 units/mL of rat m-calpain. For a control experiment, IPF-1 was incubated without addition of calpain in the same manner in the presence of calcium. Further, to test for protein degradation in the absence of calcium, a sample was prepared by adding 10 mM of EDTA instead of 6 mM of CaCl2, and incubated in the same manner. The samples after incubation were added to an equal volume of 2×SDS sample buffer, heated for 5 minutes, and subjected to 5-20% SDS-PAGE for separation. Thereafter, Western blotting was carried out to detect IPF-1 using anti-Xpress antibody and anti-IPF1 (PDX-1) antibody/N-18 (Santa Cruz Biotechnology, Inc.). The ECL Western blotting detection kit was used for conducting the detection.
In-vitro protein degradation tests were carried out in the same manner as Example 10, but the lysate of sf-9 cells that coexpressed m-calpain with calpain small subunit 1 was used as m-calpain. The final concentration of the lysate of sf-9 cells that expressed these proteins in the reaction system was 2.33 mg/mL as a protein concentration. The final concentration of rat m-calpain in the reaction system was 59 units/mL. Detection of IPF-1 was performed in the same manner as Example 10, but only anti-IPF-1 antibody/N-18 was used.

human HNF-4α = molecular target: T1, human HNF-4α (Homo sapiens, UniProt P41235); assay: binding test by intracellular coexpression/immunoprecipitation in HEK293T cells; format: cell-based; conditions: FLAG-tagged m-calpain coexpressed with Xpress-tagged HNF-4α in HEK293T cells
T1 construct: expressed in transfected cells; host or cells: HEK293T
T1 sequence (P41235 10-474): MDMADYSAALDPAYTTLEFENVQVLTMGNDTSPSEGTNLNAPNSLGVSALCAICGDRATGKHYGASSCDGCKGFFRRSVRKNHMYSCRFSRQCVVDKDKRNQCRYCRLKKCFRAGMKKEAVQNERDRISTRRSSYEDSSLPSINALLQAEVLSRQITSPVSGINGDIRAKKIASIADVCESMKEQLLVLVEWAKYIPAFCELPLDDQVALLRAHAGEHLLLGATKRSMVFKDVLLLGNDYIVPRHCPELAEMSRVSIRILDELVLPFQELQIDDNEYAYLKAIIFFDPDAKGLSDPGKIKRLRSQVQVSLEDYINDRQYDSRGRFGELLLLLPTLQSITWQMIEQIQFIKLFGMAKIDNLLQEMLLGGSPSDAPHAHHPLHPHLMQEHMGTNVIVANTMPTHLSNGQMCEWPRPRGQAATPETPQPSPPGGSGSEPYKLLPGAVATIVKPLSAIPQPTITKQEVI
Experimental: First, the m-calpain gene was co-transfected with the HNF-4α gene into HEK293T cells. More specifically, after culturing a total number of 1.3×10^6 HEK293T cells for 4 hours at 37° C. in the presence of 5% CO2 (Petri dish with 60 mm diameter), 5 μg of HNF4α expression plasmid or pcDNA 3.1/His plasmid as a negative control was transfected thereto together with 5 μg of m-calpain expression plasmid using the FuGENE 6 Transfection Reagent (Roche Applied Science). After two days culturing, the cells were washed with cold phosphate buffered saline (−) (hereunder, referred to as “PBS(−)”), suspended in 500 μl of cell lysis buffer (20 mM HEPES, pH 7.5/150 mM NaCl/1 mM EDTA/1% Triton X-100/1 mM phenylmethyl sulfonyl fluoride (PMSF)), and left to stand on ice for 20 mins. Thereafter, the cells were subjected to centrifugation at 15,000 rpm for 20 min at 4° C. to collect the supernatant for use as cell lysate. Subsequently, the collected lysate was added to 18 μl of Protein G Sepharose 4 Fast Flow (Amersham Pharmacia Biotech) that was pretreated with TBS (pH 8.0) containing 0.1% bovine serum albumin, and mixed by inversion for 2 hours at 4° C., followed by centrifugation to collect the supernatant. 0.6 μg of anti-HNF-4α antibody/HNF-4α (C-19) antibody was added to the collected supernatant, and mixed by inversion for 1 hour at 4° C. […]

B1: human m-calpain: lysate of sf-9 insect cells coexpressing human m-calpain with calpain small subunit 1; FLAG-tagged, expressed in HEK293T cells, in Example 3 (protein, UniProt P17655 20-700; P04632 1-268, looked up)
Calpain-2 catalytic subunit: SHDRAIKYLNQDYEALRNECLEAGTLFQDPSFPAIPSALGFKELGPYSSKTRGIEWKRPTEICADPQFIIGGATRTDICQGALGDCWLLAAIASLTLNEEILARVVPLNQSFQENYAGIFHFQFWQYGEWVEVVVDDRLPTKDGELLFVHSAEGSEFWSALLEKAYAKINGCYEALSGGATTEGFEDFTGGIAEWYELKKPPPNLFKIIQKALQKGSLLGCSIDITSAADSEAITFQKLVKGHAYSVTGAEEVESNGSLQKLIRIRNPWGEVEWTGRWNDNCPSWNTIDPEERERLTRRHEDGEFWMSFSDFLRHYSRLEICNLTPDTLTSDTYKKWKLTKMDGNWRRGSTAGGCRNYPNTFWMNPQYLIKLEEEDEDEEDGESGCTFLVGLIQKHRRRQRKMGEDMHTIGFGIYEVPEELSGQTNIHLSKNFFLTNRARERSDTFINLREVLNRFKLPPGEYILVPSTFEPNKDGDFCIRVFSEKKADYQAVDDEIEANLEEFDISEDDIDDGFRRLFAQLAGEDAEISAFELQTILRRVLAKRQDIKSDGFSIETCKIMVDMLDSDGSGKLGLKEFYILWTKIQKYQKIYREIDVDRSGTMNSYEMRKALEEAGFKMPCQLHQVIVARFADDQLIIDFDNFVRCLVRLETLFKIFKQLDPENTGTIELDLISWLCFSVL
Calpain small subunit 1: MFLVNSFLKGGGGGGGGGGGLGGGLGNVLGGLISGAGGGGGGGGGGGGGGGGGGGGTAMRILGGVISAISEAAAQYNPEPPPPRTHYSNIEANESEEVRQFRRLFAQLAGDDMEVSATELMNILNKVVTRHPDLKTDGFGIDTCRSMVAVMDSDTTGKLGFEEFKYLWNNIKRWQAIYKQFDTDRSGTICSSELPGAFEAAGFHLNEHLYNMIIRRYSDESGNMDFDNFISCLVRLDAMFRAFKSLDKDGTGQIQVNIQEWLQLTMYS
modifications: FLAG tag
degradation of IPF-1 (human IPF-1; in the absence of calcium (10 mM EDTA instead of CaCl2)): not observed
degradation of IPF-1 (human IPF-1; in the presence of calcium (6 mM CaCl2), Western blotting): observed
binding to HNF-4α (coprecipitation with anti-HNF-4α antibody) (human HNF-4α): coprecipitated
